In patent publication US20250115641A1 (published 2025):
Bridge positions count the residues as written; N and C are the ends. Square brackets hold non-standard residues; d marks the D form. Primed or numbered codes have the meaning given here. S5 = C=CCCC[C@](C)(N)C(=O)O; Nle = CCCC[C@H](N)C(=O)O; FITC′ = fluorescein; βAla = NCCC(=O)O

T1: human NLRP3^PYD (residues 3-110, C-terminal 6 x histidine) (human, UniProt Q96P20 3-110)
T1 chain: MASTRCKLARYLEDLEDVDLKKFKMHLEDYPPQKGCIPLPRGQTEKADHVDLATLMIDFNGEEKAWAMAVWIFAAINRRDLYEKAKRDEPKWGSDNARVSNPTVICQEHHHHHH


Experiments:
[1] = biological target: T2, human N-terminally GST tagged ASC^PYD (human, UniProt Q9ULZ3 1-106); test: FP
T2 sequence (Q9ULZ3 1-106): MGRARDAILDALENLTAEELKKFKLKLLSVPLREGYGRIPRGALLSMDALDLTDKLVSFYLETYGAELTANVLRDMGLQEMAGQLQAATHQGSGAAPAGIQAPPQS

[2] = biological target: T2, human N-terminally GST tagged ASC^PYD; test: fluorescence anisotropy
[3] = biological target: GST-NLRP3PYD; test: fluorescence anisotropy
[4] = biological target: T1, human NLRP3^PYD (residues 3-110, …); test: FP

| Binder | Kd [1] | Kd [2] | Kd [3] | Kd [4] |
| --- | --- | --- | --- | --- |
| AQXLKKXKXKLGTA (N-terminal fluorescein (FITC) on β-alanine; S5 = (S)-2-(4-pentenyl)alanine residues covalently linked (hydrocarbon staple); made on Rink amide resin) [fSAH-POP1-5] | > 10 µM | > 56 µM | 30 µM |  |
| {FITC′}-[βAla]EELKKFK[Nle]KLGTV-NH2 [fPOP1-H2] | > 10 µM | > 56 µM | 27 µM | 9.2 µM |
| AEXLKKXKXKLGTV (N-terminal fluorescein (FITC) on β-alanine; S5 = (S)-2-(4-pentenyl)alanine residues covalently linked (hydrocarbon staple); made on Rink amide resin) [fSAH-POP1-4] | > 10 µM | > 56 µM | 32 µM |  |
| XQXLKKXKXKLWTA (N-terminal fluorescein (FITC) on β-alanine; S5 = (S)-2-(4-pentenyl)alanine residues covalently linked (hydrocarbon staple); made on Rink amide resin) [fSAH-POP1-6] |  | > 56 µM | 43 µM |  |

Now from value to binder:

| Kd [1] | Kd [2] | Kd [3] | Kd [4] | Binder |
| --- | --- | --- | --- | --- |
| 0.59 µM |  | 20 µM |  | {FITC′}-[βAla]Q[S5]LRK[S5]QWKLWTA-NH2 (staple 3-7) [fSAH-POP1-12] |
|  |  | 12 µM |  | {FITC′}-[βAla]Q[S5]LRR[S5]QWKLWTA-NH2 (staple 3-7) [fSAH-POP1-13] |
|  |  | 15 µM |  | {FITC′}-[βAla]Q[S5]LRR[S5]QWKLWTS-NH2 (staple 3-7) [fSAH-POP1-16] |
|  | > 56 µM | 31 µM |  | AQXLRKXQXKLWTA (not fully specified; N-terminal fluorescein (FITC) on β-alanine; S5 = (S)-2-(4-pentenyl)alanine residues covalently linked (hydrocarbon staple); norleucine (NL) at the position of M25 of POP1; made on Rink amide resin) [fSAH-POP1-10] |
